Target: the molecule itself
Assay: cross-linking

Protein | stoichiometry N
rAPRc_(105–231), activation product derived from rAPRc_(99–231) by auto-processing (enzyme) YKWSTEVGEIIIARNRDGHFYINAFVNNVKIKFMVDTGASDIALTKEDAQKLGFDLTKLKYTRTYLTANGENKAAPITLNSVVIGKEFKNIKGHVGLGDLDISLLGMSLLERFKGFRIDKDLLILNY | 2
rAPRc_(99–231), intermediate of activation of RC1339/APRc (Aspartic Protease from Rickettsia conorii) soluble catalytic domain, C-terminal His-tag (domain or fragment, also called rAPRc99–231-His; APRc_(99–231)His; not shown: His6, C-terminal, kept) SALIPSYKWSTEVGEIIIARNRDGHFYINAFVNNVKIKFMVDTGASDIALTKEDAQKLGFDLTKLKYTRTYLTANGENKAAPITLNSVVIGKEFKNIKGHVGLGDLDISLLGMSLLERFKGFRIDKDLLILNY | 2
